The values below come from IntAct's records for PubMed 29176668.

This test concerns the target ATP2A2, P16615-1.

ATP2A2, P16615-1, sequence (P16615 whole entry): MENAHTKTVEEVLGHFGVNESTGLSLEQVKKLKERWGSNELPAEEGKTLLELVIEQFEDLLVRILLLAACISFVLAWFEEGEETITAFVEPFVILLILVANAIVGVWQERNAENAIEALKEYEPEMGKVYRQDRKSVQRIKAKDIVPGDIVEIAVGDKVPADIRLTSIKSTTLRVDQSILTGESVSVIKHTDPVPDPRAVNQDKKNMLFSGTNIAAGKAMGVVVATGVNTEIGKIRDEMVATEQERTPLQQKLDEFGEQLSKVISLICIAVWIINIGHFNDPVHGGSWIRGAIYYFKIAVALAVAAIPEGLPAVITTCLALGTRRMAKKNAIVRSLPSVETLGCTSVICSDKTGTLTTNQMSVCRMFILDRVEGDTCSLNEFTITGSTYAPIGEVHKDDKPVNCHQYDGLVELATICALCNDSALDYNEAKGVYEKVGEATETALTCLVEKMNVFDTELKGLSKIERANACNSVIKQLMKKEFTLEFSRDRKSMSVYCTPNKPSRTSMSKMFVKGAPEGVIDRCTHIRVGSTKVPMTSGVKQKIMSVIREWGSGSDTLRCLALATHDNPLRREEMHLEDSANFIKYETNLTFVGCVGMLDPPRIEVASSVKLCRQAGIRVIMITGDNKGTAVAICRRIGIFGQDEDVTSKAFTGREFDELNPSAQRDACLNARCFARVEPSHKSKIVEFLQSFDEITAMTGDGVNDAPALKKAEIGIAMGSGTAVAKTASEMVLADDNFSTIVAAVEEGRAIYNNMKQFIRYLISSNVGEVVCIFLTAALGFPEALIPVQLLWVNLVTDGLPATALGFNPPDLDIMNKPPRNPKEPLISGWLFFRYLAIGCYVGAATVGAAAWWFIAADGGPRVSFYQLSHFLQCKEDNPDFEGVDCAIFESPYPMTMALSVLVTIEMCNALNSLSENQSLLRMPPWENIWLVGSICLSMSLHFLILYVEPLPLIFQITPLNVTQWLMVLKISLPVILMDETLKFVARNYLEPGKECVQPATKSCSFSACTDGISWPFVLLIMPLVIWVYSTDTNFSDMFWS

On to “Piezo-type mechanosensitive ion channel component 1 (Mus musculus), E2JF22 E2172A;K2173A;K2174A;Y2175A;P2176A;Q2177A;P2178A;K2179A;G2180A;Q2181A”, for which the “effect of a mutation on the interaction” value was “decreasing interaction strength”.
For the substance “Piezo-type mechanosensitive ion channel component 1 (Mus musculus), E2JF22 K2182A;K2183A;K2184A;K2185A”, the “effect of a mutation on the interaction” value was “decreasing interaction strength”.
